The record followed here is the Immune Epitope Database (IEDB).

For experiment [1], the target named is HLA-A*02:01. Briefly: IEDB peptide-MHC binding, purified MHC/competitive/fluorescence; ≥ and ≤ were set here for values at or beyond the usual limits of such assays.
In experiment [2] the target is HLA-A*11:01. The description is as above.
The target of experiment [3] is HLA-A*03:01. The description is as above.
Experiment [4] has as its target HLA-B*15:01. Described as above.
In experiment [5] the target is HLA-B*07:02. Briefly: IEDB peptide-MHC binding, purified MHC/direct/fluorescence; filed as Kd, often an IC50 or EC50 that approximates it; ≥ and ≤ were set here for values at or beyond the usual limits of such assays.
Experiment [6] has as its target HLA-A*69:01. The description is as above.
In experiment [7] the target is HLA-A*02:01. Described as above.
Experiment [8] deals with HLA-B*44:02. The description is as above.
The target of experiment [9] is HLA-A*11:01. The description is as above.
For experiment [10], the target named is HLA-A*31:01. Described as above. To be noted: source organism: Influenza A virus (A/turkey/Minnesota/511/1978(H9N2)).
Experiment [11] addresses HLA-A*26:01. Described as above. To be noted: source organism: Influenza A virus (A/shorebird/Delaware/141/2002(H9N9)).
The target in experiment [12] is HLA-B*08:01. The description is as above.
Experiment [13] concerns the target HLA-A*24:02. The experiment is described as above.
The target in experiment [14] is HLA-B*40:01. Described as above.
The target in experiment [15] is HLA-A*03:01. Described as above.
Experiment [16] addresses HLA-A*01:01. Described as above.
For experiment [17], the target named is HLA-B*15:01. Described as above.
Experiment [18] concerns the target HLA-B*27:05. The experiment is described as above.
For experiment [19], the target named is HLA-B*58:01. The experiment is described as above.
Experiment [20] concerns the target HLA-B*08:02. Described as above. To be noted: source organism: Influenza A virus(A/swine/Shandong/fNY/2003(H9N2)).
Experiment [21] has as its target HLA-B*46:01. Described as above.
Experiment [22] concerns the target HLA-B*57:01. The experiment can be described thus: IEDB peptide-MHC binding, purified MHC/competitive/fluorescence; filed as Kd, often an IC50 or EC50 that approximates it; ≥ and ≤ were set here for values at or beyond the usual limits of such assays. The following applies: source organism: Zaire ebolavirus.
The target of experiment [23] is HLA-A*69:01. Described as above. To be noted: source organism: Zaire ebolavirus.
Experiment [24] addresses HLA-A*02:01. The experiment is described as above. To be noted: source organism: Zaire ebolavirus.
Experiment [25] addresses HLA-B*51:01. The description is as above. The following applies: source organism: Zaire ebolavirus.
The target of experiment [26] is HLA-A*26:01. The description is as above. To be noted: source organism: Zaire ebolavirus.
Experiment [27] addresses HLA-B*39:01. Described as above. The following applies: source organism: Zaire ebolavirus.
Experiment [28] deals with HLA-B*27:03. The description is as above. To be noted: source organism: Zaire ebolavirus.
The target in experiment [29] is HLA-B*15:17. Described as above. To be noted: source organism: Zaire ebolavirus.
The target in experiment [30] is HLA-B*46:01. Described as above. The following applies: source organism: Zaire ebolavirus.
For experiment [31], the target named is HLA-B*18:01. The experiment is described as above. The following applies: source organism: Zaire ebolavirus.
In experiment [32] the target is HLA-A*02:19. Briefly: IEDB peptide-MHC binding, purified MHC/direct/fluorescence; filed as Kd, often an IC50 or EC50 that approximates it; ≥ and ≤ were set here for values at or beyond the usual limits of such assays. The following applies: source organism: Zaire ebolavirus.
Experiment [33] addresses HLA-A*68:02. The description is as above. To be noted: source organism: Zaire ebolavirus.
The target of experiment [34] is HLA-A*02:11. The description is as above. The following applies: source organism: Zaire ebolavirus.
Experiment [35] has as its target HLA-A*02:03. Described as above. To be noted: source organism: Zaire ebolavirus.
The target in experiment [36] is HLA-A*24:03. Described as above. The following applies: source organism: Zaire ebolavirus.
For experiment [37], the target named is HLA-A*02:12. The experiment is described as above. To be noted: source organism: Zaire ebolavirus.
Experiment [38] concerns the target HLA-A*02:16. Described as above. The following applies: source organism: Zaire ebolavirus.
For experiment [39], the target named is HLA-A*24:02. The experiment can be described thus: IEDB peptide-MHC binding, purified MHC/competitive/fluorescence; ≥ and ≤ were set here for values at or beyond the usual limits of such assays. To be noted: source organism: Zaire ebolavirus.
Experiment [40] concerns the target HLA-B*07:02. The description is as above.
Setting [41] is: source organism: Vaccinia virus Copenhagen.
[42] abbreviates: source organism: Influenza A virus (A/turkey/Minnesota/511/1978(H9N2)).
[43] abbreviates: source organism: Influenza A virus (A/Puerto Rico/8/34/Mount Sinai(H1N1)).
[44] abbreviates: source organism: Influenza A virus (A/egret/Hong Kong/757.3/2002(H5N1)).
Setting [45] is: source organism: Zaire ebolavirus.
The mark [46] stands for this setting: source organism: Escherichia coli O157:H7.
Where [47] appears, read: source organism: Sudan ebolavirus.

Regarding AIITPIVFY, the IC50 in experiment [1] (setting [41]) is ≥ 122 µM; in experiment [2] (setting [41]), 0.941 µM; in experiment [3] (setting [41]), ≥ 153 µM; in experiment [4] (setting [41]), 6.37 µM.

For DLLENLQAY, the Kd in [5] (setting [42]), in experiment [6] (setting [42]), in experiment [7] (setting [42]), in experiment [8] (setting [42]), in experiment [9] (setting [42]) and in experiment [10] was ≥ 20 µM in each case. The dissociation constant (Kd) in experiment [11] is 0.115 µM; in experiment [12] (setting [42]), ≥ 20 µM; in experiment [13] (setting [42]), ≥ 20 µM; in [14] (setting [42]), ≥ 20 µM; in [15] (setting [42]), ≥ 20 µM; in experiment [16] (setting [42]), ≥ 20 µM. Besides, the values for the Kd in [17] (setting [43]), in experiment [18] (setting [42]) and in [19] (setting [42]) were 2.69 µM, ≥ 20 µM and ≥ 20 µM, respectively.

Consider EEFTMVGRR, for which the Kd in experiment [5] (setting [44]) is ≥ 20 µM; in experiment [6] (setting [44]), ≥ 20 µM; in experiment [8] (setting [44]), ≥ 20 µM; in experiment [12] (setting [44]) it was ≥ 20 µM; in experiment [13] (setting [44]), ≥ 20 µM; in experiment [15] (setting [43]) it was 1.01 µM. In addition, the Kd in [20], in experiment [16] (setting [44]), in experiment [17] (setting [44]), in experiment [18] (setting [44]), in experiment [19] (setting [44]) and in experiment [21] (setting [44]) was ≥ 20 µM each time.

As for GLIQYPTAW, the dissociation constant (Kd) in experiment [22], in [23], in experiment [24], in [25], in [26] and in [27] was ≥ 20 µM in each case. Besides, the Kd in [28], in [29], in experiment [30], in [31], in experiment [32] and in experiment [33] was ≥ 20 µM in each case. Moreover, the Kd is ≥ 20 µM in experiment [34]; ≥ 20 µM in [35]; ≥ 20 µM in [15] (setting [45]); ≥ 20 µM in [36]; ≥ 20 µM in experiment [37]; 2.2 µM in experiment [17] (setting [45]). In addition, the figures for the Kd in experiment [38] and in [19] (setting [45]) were ≥ 20 µM and 0.5 µM, respectively. For the same sequence, the IC50 in experiment [1] (setting [45]) is 3.1 µM; in experiment [39], 13.2 µM; in experiment [4] (setting [45]), ≥ 109 µM.

For GQHIEGRQT, the 50% inhibitory concentration (IC50) in experiment [4] (setting [45]) is ≥ 148 µM.

For PLKVKDIPF, the Kd in experiment [5] (setting [46]), in experiment [7] (setting [46]), in experiment [8] (setting [46]), in experiment [9] (setting [46]), in experiment [13] (setting [46]) and in experiment [14] (setting [46]) was ≥ 20 µM throughout. Besides, the Kd in experiment [15] (setting [46]) was ≥ 20 µM; in [16] (setting [46]), ≥ 20 µM; in [17] (setting [46]), 0.196 µM; in experiment [18] (setting [46]), ≥ 20 µM; in experiment [19] (setting [46]), ≥ 20 µM; in experiment [21] (setting [46]) it was ≥ 20 µM.

Turning to RSRRQTNTK, the values for the IC50 in [40] (setting [47]), in experiment [2] (setting [47]) and in experiment [3] (setting [47]) were 8.84 µM, 1.47 µM and 2.27 µM, respectively.

For STSPRMLTP, the values for the IC50 in experiment [40] (setting [45]), in experiment [2] (setting [45]) and in experiment [39] were ≥ 168 µM, 44.1 µM and 69.9 µM, respectively.

For VIFRLMRTN, the IC50 in experiment [1] (setting [45]) is 42.7 µM; in experiment [2] (setting [45]), ≥ 90.6 µM; in [39], ≥ 150 µM; in [3] (setting [45]), 7.47 µM; in experiment [4] (setting [45]), ≥ 175 µM.

For the sequence WPVMNHKNK, the IC50 in experiment [40] (setting [45]) was 53.1 µM; in [2] (setting [45]), ≥ 185 µM; in experiment [3] (setting [45]), ≥ 180 µM.

In general, IC50 refers to the concentration that inhibits the measured activity by half. Lower therefore signals higher potency. Usually Kd stands for the equilibrium constant for the complex coming apart. Read a high Kd as lower affinity.
